Measured values taken from paper PMC9321280 (Nature Communications, 2022).

Target: T1, GFP-fused TcsH CROPs (residues 1832–2618), His-tagged (Paeniclostridium sordellii, UniProt M9ZTT7 1832-2618)
T1 construct: source: Escherichia coli (pET28a vector), purified as His-tagged protein
T1 sequence: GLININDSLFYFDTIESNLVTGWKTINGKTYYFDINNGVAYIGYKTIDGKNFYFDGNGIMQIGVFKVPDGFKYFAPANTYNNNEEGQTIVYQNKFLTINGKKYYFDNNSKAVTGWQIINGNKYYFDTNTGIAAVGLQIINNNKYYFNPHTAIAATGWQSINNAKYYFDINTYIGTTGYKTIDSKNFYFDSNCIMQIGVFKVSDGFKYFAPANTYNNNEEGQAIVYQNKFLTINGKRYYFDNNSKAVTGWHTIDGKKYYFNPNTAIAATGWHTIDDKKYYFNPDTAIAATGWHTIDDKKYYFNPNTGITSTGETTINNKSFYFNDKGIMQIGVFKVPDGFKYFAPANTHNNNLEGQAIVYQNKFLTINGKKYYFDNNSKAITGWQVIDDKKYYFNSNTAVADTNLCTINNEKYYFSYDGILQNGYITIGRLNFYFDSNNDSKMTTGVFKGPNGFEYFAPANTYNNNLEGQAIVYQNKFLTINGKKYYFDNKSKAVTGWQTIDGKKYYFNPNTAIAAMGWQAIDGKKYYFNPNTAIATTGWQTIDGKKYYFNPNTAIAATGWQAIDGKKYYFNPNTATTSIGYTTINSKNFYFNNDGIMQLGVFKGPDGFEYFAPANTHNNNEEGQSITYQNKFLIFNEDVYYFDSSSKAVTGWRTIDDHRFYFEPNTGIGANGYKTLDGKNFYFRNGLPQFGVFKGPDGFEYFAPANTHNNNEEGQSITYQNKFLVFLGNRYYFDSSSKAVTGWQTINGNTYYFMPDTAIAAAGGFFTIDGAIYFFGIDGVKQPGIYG
Assay: BLI
Settings: both partners purified

B1: Fc-tagged TMPRSS2^106-492/[change] (ectodomain of human TMPRSS2 with [change]) (Fc fusion)
chain: WKFMGSKCSNSGIECDSSGTCINPSNWCDGVSHCPGGEDENRCVRLYGPNFILQVYSSQRKSWHPVCQDDWNENYGRAACRDMGYKNNFYSSQGIVDDSGSTSFMKLNTSAGNVDIYKKLYHSDACSSKAVVSLRCIACGVNLNSSRQSQIVGGESALPGAWPWQVSLHVQNVHVCGGSIITPEWIVTAAHCVEKPLNNPWHWTAFAGILRQSFMFYGAGYQVEKVISHPNYDSKTKNNDIALMKLQKPLTFNDLVKPVCLPNPGMMLQPEQLCWISGWGATEEKGKTSEVLNAAKVLLIETQRCNSRYVYDNLITPAMICAGFLQGNVDSCQGDSGGPLVTSKNNIWWLIGDTSWGSGCAKAYRPGVYGNVMVFTDWIYRQMRADG
Which Kd does the source give for B1 here?
The Kd was ~5.23 nM.
